Patent US20220411483A1 (Chugai, published 2022)
Positions count from the first letter of the chain named.

T1: FcγRIIa H type extracellular domain, His tag (human, UniProt P12318 34-217)
T1 construct: extracellular domain; also called FcgRIIaH
T1 sequence (looked up): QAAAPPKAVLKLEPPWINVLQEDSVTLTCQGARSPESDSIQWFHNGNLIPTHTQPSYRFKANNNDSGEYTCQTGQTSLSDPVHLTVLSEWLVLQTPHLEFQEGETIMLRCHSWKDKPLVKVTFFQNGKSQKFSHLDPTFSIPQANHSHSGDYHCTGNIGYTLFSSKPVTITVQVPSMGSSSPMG

T2: FcγRIIa R type extracellular domain, His tag (human, UniProt P12318 34-217)
T2 construct: extracellular domain; also called FcgRIIaR
T2 sequence (looked up): T1 sequence (looked up) with H134R

T3: FcγRIIb extracellular domain, His tag (human, UniProt P31994 43-217)
T3 construct: extracellular domain; also called FcgRIIb
T3 sequence (looked up): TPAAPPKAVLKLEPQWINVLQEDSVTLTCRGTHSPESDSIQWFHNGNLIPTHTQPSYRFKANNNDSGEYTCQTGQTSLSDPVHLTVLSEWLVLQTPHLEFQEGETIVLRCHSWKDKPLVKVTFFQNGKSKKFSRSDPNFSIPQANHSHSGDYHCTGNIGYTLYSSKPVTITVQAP

B1: IL6R-P591/IL6R-L (antibody, human IgG1, kappa)
heavy: QVQLQESGPGLVKPSETLSLTCAVSGHSISHDHAWSWVRQPPGEGLEWIGFISYSGITNYNPSLQGRVTISRDNSKNTLYLQMNSLRAEDTAVYYCARSLARTTAMDYWGEGTLVTVSSASTKGPSVFPLAPSSKSTSGGTAALGCLVKDYFPEPVTVSWNSGALTSGVHTFPAVLQSSGLYSLSSVVTVPSSSLGTQTYICNVNHKPSNTKVDKKVEPKSCDKTHTCPPCPAPELLGGDSVMLFPPKPKDTLMISRTPEVTCVVVDVSHEDPEVKFNWYVDGVEVHNAKTKPREEQENSTYRVVSVLTVLHQDWLNGKEYKCKVSNKALPAPIEKTISKAKGQPREPQVYTLPPSRDELTKNQVSLTCLVKGFYPSDIAVEWESNGQPENNYKTTPPVLDSDGSFFLYSKLTVDKSRWQQGNVFSCSVMHEALHNHYTQKSLSLSP
light: not shown
B2: IL6R-P602/IL6R-L (antibody, human IgG1, kappa)
heavy: B1 heavy with Q297V
light: not shown
B3: IL6R-P603/IL6R-L (antibody, human IgG1, kappa)
heavy: B1 heavy with V325I
light: not shown
B4: IL6R-P605/IL6R-L (antibody, human IgG1, kappa)
heavy: B1 heavy with M243F, E298D, S300A
light: not shown
B5: IL6R-P653/IL6R-L (antibody, human IgG1, kappa)
heavy: B1 heavy with H270P
light: not shown
B6: IL6R-P654/IL6R-L (antibody, human IgG1, kappa)
heavy: B1 heavy with S326N
light: not shown
B7: IL6R-P655/IL6R-L (antibody, human IgG1, kappa)
heavy: B1 heavy with S326H
light: not shown
B8: IL6R-P656/IL6R-L (antibody, human IgG1, kappa)
heavy: B1 heavy with A332H
light: not shown
B9: IL6R-P657/IL6R-L (antibody, human IgG1, kappa)
heavy: B1 heavy with A332Y
light: not shown
B10: IL6R-P662/IL6R-L (antibody, human IgG1, kappa)
heavy: B1 heavy with M243F, E298D, S300A, S326N
light: not shown
B11: IL6R-P663/IL6R-L (antibody, human IgG1, kappa)
heavy: B1 heavy with M243F, E298D, S300A, A332H
light: not shown

Each binder was assayed against T1, FcγRIIa H type extracellular domain, … (assay: SPR, KD ratio).

Binder | Relative FcgRIIaH-binding Activity
B1 | 0.011 fold of IL6R-G1d/IL6R-L
B2 | 0.01 fold of IL6R-G1d/IL6R-L
B3 | 0.009 fold of IL6R-G1d/IL6R-L
B4 | 0.007 fold of IL6R-G1d/IL6R-L
B5 | 0.009 fold of IL6R-G1d/IL6R-L
B6 | 0.014 fold of IL6R-G1d/IL6R-L
B7 | 0.017 fold of IL6R-G1d/IL6R-L
B8 | 0.011 fold of IL6R-G1d/IL6R-L
B9 | 0.009 fold of IL6R-G1d/IL6R-L

The binders below were run against T4, FcγRIIIa V type extracellular domain, His tag (human, UniProt P08637 17-208) (assay: SPR, KD ratio).
T4 construct: extracellular domain; also called FcgRIIIaV
T4 sequence (P08637 17-208 F176V): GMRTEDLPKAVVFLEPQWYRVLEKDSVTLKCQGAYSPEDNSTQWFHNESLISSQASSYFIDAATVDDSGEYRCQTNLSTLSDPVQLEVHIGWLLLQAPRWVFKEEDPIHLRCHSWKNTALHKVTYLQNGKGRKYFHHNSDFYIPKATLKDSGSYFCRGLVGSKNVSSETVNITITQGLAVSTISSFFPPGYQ

Binder | Relative FcgRIIIaV-binding Activity
B1 | 0.008 fold of IL6R-G1d/IL6R-L
B2 | 0.006 fold of IL6R-G1d/IL6R-L
B3 | 0.004 fold of IL6R-G1d/IL6R-L
B4 | 0.008 fold of IL6R-G1d/IL6R-L
B5 | 0.007 fold of IL6R-G1d/IL6R-L
B6 | 0.007 fold of IL6R-G1d/IL6R-L
B7 | 0.007 fold of IL6R-G1d/IL6R-L
B8 | 0.007 fold of IL6R-G1d/IL6R-L
B9 | 0.005 fold of IL6R-G1d/IL6R-L

The binders below were run against T2, FcγRIIa R type extracellular domain, … (assay: SPR, KD ratio).

Binder | Relative FcgRIIaR-binding Activity
B1 | 0.034 fold of IL6R-G1d/IL6R-L
B2 | 0.028 fold of IL6R-G1d/IL6R-L
B3 | 0.026 fold of IL6R-G1d/IL6R-L
B4 | 0.021 fold of IL6R-G1d/IL6R-L
B5 | 0.024 fold of IL6R-G1d/IL6R-L
B6 | 0.032 fold of IL6R-G1d/IL6R-L
B7 | 0.03 fold of IL6R-G1d/IL6R-L
B8 | 0.032 fold of IL6R-G1d/IL6R-L
B9 | 0.026 fold of IL6R-G1d/IL6R-L

These binders were tested against T5, FcγRIa extracellular domain, His tag (human, UniProt P12314 16-292) (assay: SPR, KD ratio).
T5 construct: whole entry named; also called FcgRIa
T5 sequence (P12314 16-292): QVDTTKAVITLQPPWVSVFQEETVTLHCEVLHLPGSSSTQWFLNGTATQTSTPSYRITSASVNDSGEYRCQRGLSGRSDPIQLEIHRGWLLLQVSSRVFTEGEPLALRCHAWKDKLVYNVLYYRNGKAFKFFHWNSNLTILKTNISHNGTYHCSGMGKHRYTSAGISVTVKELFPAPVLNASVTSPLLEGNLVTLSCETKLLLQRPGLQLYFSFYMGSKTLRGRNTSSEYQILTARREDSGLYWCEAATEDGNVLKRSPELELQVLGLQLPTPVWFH

Binder | Relative FcgRIa-binding Activity
B1 | 0.0138 fold of IL6R-G1d/IL6R-L
B2 | 0.0174 fold of IL6R-G1d/IL6R-L
B3 | 0.015 fold of IL6R-G1d/IL6R-L
B4 | 0.0384 fold of IL6R-G1d/IL6R-L
B5 | 0.0183 fold of IL6R-G1d/IL6R-L
B6 | 0.0206 fold of IL6R-G1d/IL6R-L
B7 | 0.0183 fold of IL6R-G1d/IL6R-L
B8 | 0.0118 fold of IL6R-G1d/IL6R-L
B9 | 0.0194 fold of IL6R-G1d/IL6R-L

What follows are binders tested against T3, FcγRIIb extracellular domain, His tag (assay: SPR, KD ratio).

Binder | Relative FcgRIIb-binding Activity
B1 | 1.65 fold of IL6R-G1d/IL6R-L
B2 | 2.13 fold of IL6R-G1d/IL6R-L
B3 | 1.9 fold of IL6R-G1d/IL6R-L
B4 | 0.977 fold of IL6R-G1d/IL6R-L
B5 | 1.46 fold of IL6R-G1d/IL6R-L
B6 | 2.02 fold of IL6R-G1d/IL6R-L
B7 | 1.89 fold of IL6R-G1d/IL6R-L
B8 | 2.68 fold of IL6R-G1d/IL6R-L
B9 | 1.64 fold of IL6R-G1d/IL6R-L

These binders were tested against T2, FcγRIIa R type extracellular domain, … (assay: SPR, bound amount per captured antibody).

Binder | Relative FcgRIIaR-binding Activity
B1 | 20 % of IL6R-G1d/IL6R-L
B2 | 18.1 % of IL6R-G1d/IL6R-L
B3 | 16.9 % of IL6R-G1d/IL6R-L
B4 | 13.5 % of IL6R-G1d/IL6R-L
B5 | 14.5 % of IL6R-G1d/IL6R-L
B6 | 18.2 % of IL6R-G1d/IL6R-L
B7 | 17.1 % of IL6R-G1d/IL6R-L
B8 | 18.2 % of IL6R-G1d/IL6R-L
B9 | 15.4 % of IL6R-G1d/IL6R-L
B10 | 11.2 % of IL6R-G1d/IL6R-L
B11 | 10.1 % of IL6R-G1d/IL6R-L

The binders below were run against T3, FcγRIIb extracellular domain, His tag (assay: SPR, bound amount per captured antibody).

Binder | Relative FcgRIIb-binding Activity
B1 | 131 % of IL6R-G1d/IL6R-L
B2 | 112 % of IL6R-G1d/IL6R-L
B3 | 130 % of IL6R-G1d/IL6R-L
B4 | 82 % of IL6R-G1d/IL6R-L
B5 | 116 % of IL6R-G1d/IL6R-L
B6 | 128 % of IL6R-G1d/IL6R-L
B7 | 127 % of IL6R-G1d/IL6R-L
B8 | 138 % of IL6R-G1d/IL6R-L
B9 | 115 % of IL6R-G1d/IL6R-L
B10 | 73.3 % of IL6R-G1d/IL6R-L
B11 | 79.7 % of IL6R-G1d/IL6R-L
